Test: stability of the structural color on a baked biscuit at high temperature
Format: physicochemical
Conditions: 130-150° C.
Method: At block 902, a predetermined solution mixed with the submicron particles prepared from the predetermined material and the cuttlefish juice submicron particles is applied to a target object. The target object, for example, is food such as, but not limited to, various pastries and candies. For example, a mixture solution of the TiO2 submicron particles and cuttlefish juice submicron particles are added dropwise onto a surface of a biscuit.
At block 904, the target object is baked or frozen to evaporate or sublimate the predetermined solution such that the submicron particles prepared from the predetermined material and the cuttlefish juice submicron particles can be self-assembled into the amorphous photonic crystal structure on the target object, where the baking temperature is less than or equal to 250° C.
For example, when baked, the biscuit having drops of the mixture solution added onto the surface is dried with the increasing baking temperature. In the case, the submicron particles prepared from the predetermined material and the cuttlefish juice submicron particles are self-assembled to generate the structural color of the amorphous photonic crystal structure. The structural color is stable in the baked state at a high temperature (130-150° C.), and the legacy phycocyanin will fade at such high temperature. […]

phycocyanin
color stability in the baked state: will fade
